{"source": "patent US20150139982A1", "about": "(ALETHIA BIOTHERAPEUTICS, published 2015)", "binders": {"B1": {"name": "humanized 25E9 L1H2 IgG1 (antibody, V domains shown)", "VH": "EIQLQQSGAEVKKPGSSVKVSCKASGYTFTDYDMHWVRQAPGQGLEWIGTIDPETGGTAYNQKFKGRATLTADRSTSTAYMELSSLRSEDTAVYYCTSFYYTYSNYDVGFAYWGQGTLVTVSS", "VL": "DIVMTQSPLSLPVTPGEPASISCRSTKSLLHSNGNTYLYWYLQKPGQSPQLLIYRMSNLASGVPDRFSGSGSGTDFTLKISRVEAEDVGVYYCMQHLEYPFTFGGGTKVEIKR", "notes": "The residue ranges are those stated in CLM-00047 (item b)"}, "B2": {"name": "humanized 25D8 IgG2 antibody (antibody, V domains shown)", "VH": "QVQLQQSGAEVKKPGSSVKVSCKASGYTFTSYWMHWVRQAPGQGLEWMGLINPSNARTNYNEKFNTRVTITADKSTSTAYMELSSLRSEDTAVYYCARGGDGDYFDYWGQGTTVTVSS", "VL": "B1 VL with S7T, T26S, N35I, R55Q, M94A, H96N, Y99L, F101Y", "notes": "Human kappa / human IgG2; also called humanized full-length IgG2 25D8"}, "B3": {"name": "humanized 25E9 L1H4 IgG1 (antibody, V domains shown)", "VH": "B1 VH with R38K, Q43H, R67K, R87T", "VL": "B1 VL", "notes": "The residue ranges are those stated in CLM-00047 (item d)"}, "B4": {"name": "humanized 25E9 L1H3 IgG1 (antibody, V domains shown)", "VH": "B1 VH with R38K, R67K", "VL": "B1 VL", "notes": "The residue ranges are those stated in CLM-00047 (item c)"}, "B5": {"name": "25E9-ADC (humanized 25E9 L1H1 IgG1 conjugated antibody) (antibody)", "light": "DIVMTQSPLSLPVTPGEPASISCRSTKSLLHSNGNTYLYWYLQKPGQSPQLLIYRMSNLASGVPDRFSGSGSGTDFTLKISRVEAEDVGVYYCMQHLEYPFTFGGGTKVEIKRTVAAPSVFIFPPSDEQLKSGTASVVCLLNNFYPREAKVQWKVDNALQSGNSQESVTEQDSKDSTYSLSSTLTLSKADYEKHKVYACEVTHQGLSSPVTKSFNRGEC", "heavy": "not shown", "modifications": "conjugated to a toxic payload; payload, linker and attachment residues not stated"}, "B6": {"name": "humanized 25E9 L1H1 IgG1 variant (antibody)", "light": "B5 light", "heavy": "not shown", "notes": "Full-length human kappa / human IgG1; Produced in CHO or 293 cells; also called humanized IgG1 variant of 25E9; unconjugated 25E9"}, "B7": {"name": "humanized 25E9 L1H1 IgG2 variant (antibody)", "light": "B5 light", "heavy": "EIQLQQSGAEVKKPGSSVKVSCKASGYTFTDYDMHWVRQAPGQGLEWMGTIDPETGGTAYNQKFKGRVTITADKSTSTAYMELSSLRSEDTAVYYCTSFYYTYSNYDVGFAYWGQGTLVTVSSASTKGPSVFPLAPCSRSTSESTAALGCLVKDYFPEPVTVSWNSGALTSGVHTFPAVLQSSGLYSLSSVVTVPSSNFGTQTYTCNVDHKPSNTKVDKTVERKCCVECPPCPAPPVAGPSVFLFPPKPKDTLMISRTPEVTCVVVDVSHEDPEVQFNWYVDGVEVHNAKTKPREEQFNSTFRVVSVLTVVHQDWLNGKEYKCKVSNKGLPAPIEKTISKTKGQPREPQVYTLPPSREEMTKNQVSLTCLVKGFYPSDIAVEWESNGQPENNYKTTPPMLDSDGSFFLYSKLTVDKSRWQQGNVFSCSVMHEALHNHYTQKSLSLSPGK", "notes": "Full-length human kappa / human IgG2; also called humanized 25E9 IgG2"}}, "key": {"human Siglec-15 [1]": {"biological_target": "T1, human Siglec-15 (human, UniProt Q6ZMC9 20-328)", "T1 construct": "also called h-Siglec-15; CD33L3", "T1 sequence": "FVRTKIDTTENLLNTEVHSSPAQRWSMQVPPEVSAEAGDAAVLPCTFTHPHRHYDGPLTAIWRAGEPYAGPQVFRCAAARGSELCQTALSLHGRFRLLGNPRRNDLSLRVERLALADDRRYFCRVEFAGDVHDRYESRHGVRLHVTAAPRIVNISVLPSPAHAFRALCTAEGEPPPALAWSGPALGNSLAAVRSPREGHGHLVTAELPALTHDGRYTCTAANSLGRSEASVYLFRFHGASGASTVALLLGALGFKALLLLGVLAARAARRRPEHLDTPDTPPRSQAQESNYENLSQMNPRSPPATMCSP", "assay": "flow cytometry on 293-6E cells transfected with human Siglec-15", "method": "(§1) We tested the ability of the humanized antibodies to interact with human Siglec-15 expressed on the surface of cultured cells. […] Twenty-four hours later, the cells were harvested, counted and 1×10⁵ cells were incubated with increasing concentrations of the humanized IgG1 variant of 25E9 for 1 hour at 4 C. Following a washing step with cold PBS, bound 25E9 was detected with an anti-human kappa light chain IgG conjugated to FITC. Fluorescently labeled cells were injected into a flow cytometer to measure the fluorescence signal on the surface of intact cells. […] The average KD was in the low nanomolar range. Furthermore, the binding parameters were very similar in the presence of the humanized 25E9 L1H1 IgG1 variant produced in either CHO cells or 293 cells. […] Similar results were obtained with other 25E9 humanized IgG1 antibody variants (the L1H2 IgG1, the L1H3 IgG1, the L1H4 IgG1 and, the L1H1 IgG2) or with the humanized 25D8 IgG2 antibody."}, "human Siglec-15 [2]": {"biological_target": "T1, human Siglec-15", "assay": "flow cytometry on 293-6E cells transfected with human Siglec-15 cDNA", "excerpt": "The average KD was in the low nanomolar range. Furthermore, the binding parameters were very similar in the presence of the humanized 25E9 L1H1 IgG1 variant produced in either CHO cells or 293 cells. […] Similar results were obtained with other 25E9 humanized IgG1 antibody variants (the L1H2 IgG1, the L1H3 IgG1, the L1H4 IgG1 and, the L1H1 IgG2) or with the humanized 25D8 IgG2 antibody.\nExperiments were undertaken to examine the feasibility of targeting Siglec-15-expressing cells with an ADC. The humanized 25E9 L1H1 IgG1 variant was conjugated to a payload that is toxic to proliferating cells as well as non-proliferating or fully differentiated cells, in particular osteoclasts. The humanized 25E9 L1H1 IgG1 conjugated antibody was designated 25E9-ADC. Since the conjugation might affect the ability of 25E9 to interact with native Siglec-15, flow cytometry was conducted to measure the binding of the 25E9-ADC to Siglec-15 expressing cells."}, "human Siglec-15 [3]": {"biological_target": "T1, human Siglec-15", "assay": "cell-based or functional assay"}, "[4]": {"biological_target": "T2, Fc-Siglec-15 fusion protein (Homo sapiens (Human), UniProt Q6ZMC9 20-259, limits assumed)", "T2 construct": "also called recombinant Siglec-15; purified Fc-Siglec-15; not shown: Fc region", "T2 sequence": "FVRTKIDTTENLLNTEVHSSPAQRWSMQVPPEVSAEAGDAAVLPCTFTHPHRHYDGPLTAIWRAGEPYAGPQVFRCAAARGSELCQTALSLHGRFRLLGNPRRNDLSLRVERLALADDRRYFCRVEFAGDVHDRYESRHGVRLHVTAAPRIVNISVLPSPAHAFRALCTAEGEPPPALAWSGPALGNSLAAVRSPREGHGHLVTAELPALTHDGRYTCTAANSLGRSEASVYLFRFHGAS", "assay": "SPR, Fc-Siglec-15 immobilized, antibody injected at 100 to 1.23 nM, 1:1 fit", "method": "(§2) FIG. 12. SPR chromatograms illustrating the differences in binding parameters between the humanized 25E9 L1H1 IgG1 (left panel) and the humanized 25E9 L1H1 IgG2 (right panel). Purified Fc-Siglec-15 was immobilized (150RU) and humanized 25E9 was injected at the indicated concentrations (100 nM, 33.3 nM, 11.1 nM, 3.70 nM and 1.23 nM). The curves were fit with a 1:1 ratio.\n(§3) More particularly, we compared the binding activity of the humanized 25E9 L1H1 IgG1 (the L1H1 IgG1 variant) with the humanized 25E9 L1H1 IgG2 (the L1H1 IgG2 variant) using SPR. The analysis was conducted using methods similar to what was described above (see Example 6). In this instance, Fc-Siglec-15 was immobilized on the chip and decreasing concentrations of the 25E9 antibody variants were injected (100 nM, 33.3 nM, 11.1 nM, 3.70 nM and 1.23 nM). […] The difference in binding was mostly contributed by a slower off-rate (kd) of the IgG1 compared to the IgG2."}, "human Siglec-15 [5]": {"biological_target": "T1, human Siglec-15", "assay": "flow cytometry titration (0 to 4 µg/ml) on 293-6E cells transfected with human Siglec-15, detected with FITC anti-human kappa light chain; antibody made in 293 cells", "method": "as §1"}, "human Siglec-15 [6]": {"biological_target": "T1, human Siglec-15", "assay": "flow cytometry titration (0 to 4 µg/ml) on 293-6E cells transfected with human Siglec-15, detected with FITC anti-human kappa light chain; antibody made in CHO cells", "method": "as §1"}, "[7]": {"biological_target": "T2, Fc-Siglec-15 fusion protein", "assay": "SPR, Fc-Siglec-15 immobilized (150 RU), antibody injected at 100, 33.3, 11.1, 3.70 and 1.23 nM, 1:1 fit", "method": "as §2, §3"}, "[8]": {"biological_target": "T2, Fc-Siglec-15 fusion protein", "assay": "SPR, Fc-Siglec-15 immobilized, antibody injected", "method": "as §2, §3"}}, "note": "Where a chain is given by its changes, count along the chain named."}
{"binder": "B1", "values": [{"measurement": "binding result", "setting": "human Siglec-15 [1]", "value": "binds"}]}
{"binder": "B2", "values": [{"measurement": "binding result", "setting": "human Siglec-15 [1]", "value": "binds"}]}
{"binder": "B3", "values": [{"measurement": "binding result", "setting": "human Siglec-15 [1]", "value": "binds"}]}
{"binder": "B4", "values": [{"measurement": "binding result", "setting": "human Siglec-15 [1]", "value": "binds"}]}
{"binder": "B5", "values": [{"measurement": "EC50 (read off the curve)", "setting": "human Siglec-15 [2]", "value": "~0.2", "unit": "µg/mL"}]}
{"binder": "B6", "values": [{"measurement": "fold difference in potency against the humanized 25E9 L1H1 IgG2 variant (osteoclast differentiation)", "setting": "human Siglec-15 [3]", "value": "~100", "unit": "fold"}, {"measurement": "Kd", "setting": "[4]", "value": 0.164, "unit": "nM"}, {"measurement": "Kd", "setting": "human Siglec-15 [5]", "value": 1.9, "unit": "nM"}, {"measurement": "EC50 (read off the curve)", "setting": "human Siglec-15 [2]", "value": "~0.1", "unit": "µg/mL"}, {"measurement": "Kd", "setting": "human Siglec-15 [6]", "value": 5.7, "unit": "nM"}, {"measurement": "koff", "setting": "[7]", "value": 0.000151, "unit": "s⁻¹"}, {"measurement": "kon", "setting": "[7]", "value": 921000, "unit": "M⁻¹ s⁻¹"}, {"measurement": "fold higher affinity than the humanized 25E9 L1H1 IgG2 variant", "setting": "[8]", "value": "~10", "unit": "fold"}]}
{"binder": "B7", "values": [{"measurement": "Kd", "setting": "[4]", "value": 1.26, "unit": "nM"}, {"measurement": "koff", "setting": "[7]", "value": 0.000655, "unit": "s⁻¹"}, {"measurement": "kon", "setting": "[7]", "value": 520000, "unit": "M⁻¹ s⁻¹"}]}
